Assay results reported in US20080267971A1 (published 2008).
Residue numbers refer to the chain shown, from its start.

T1: human Ang-2443 (human, UniProt O15123 19-496)
T1 construct: Splice variant missing amino acids 96-148; supernatant of transfected 293F cells
T1 sequence: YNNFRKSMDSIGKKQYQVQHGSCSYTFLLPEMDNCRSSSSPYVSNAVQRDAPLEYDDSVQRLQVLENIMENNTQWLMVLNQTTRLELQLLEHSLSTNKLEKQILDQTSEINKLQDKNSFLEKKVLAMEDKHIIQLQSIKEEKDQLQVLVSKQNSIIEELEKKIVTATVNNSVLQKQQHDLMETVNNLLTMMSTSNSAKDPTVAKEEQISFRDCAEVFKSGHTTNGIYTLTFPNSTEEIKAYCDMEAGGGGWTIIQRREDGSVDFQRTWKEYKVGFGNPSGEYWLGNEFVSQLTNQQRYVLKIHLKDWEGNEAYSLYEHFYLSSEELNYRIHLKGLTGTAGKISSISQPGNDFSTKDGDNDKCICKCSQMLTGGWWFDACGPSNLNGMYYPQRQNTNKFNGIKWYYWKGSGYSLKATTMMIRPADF

T2: Human Ang-1/2 BsmI chimeric molecule (human)
T2 chain: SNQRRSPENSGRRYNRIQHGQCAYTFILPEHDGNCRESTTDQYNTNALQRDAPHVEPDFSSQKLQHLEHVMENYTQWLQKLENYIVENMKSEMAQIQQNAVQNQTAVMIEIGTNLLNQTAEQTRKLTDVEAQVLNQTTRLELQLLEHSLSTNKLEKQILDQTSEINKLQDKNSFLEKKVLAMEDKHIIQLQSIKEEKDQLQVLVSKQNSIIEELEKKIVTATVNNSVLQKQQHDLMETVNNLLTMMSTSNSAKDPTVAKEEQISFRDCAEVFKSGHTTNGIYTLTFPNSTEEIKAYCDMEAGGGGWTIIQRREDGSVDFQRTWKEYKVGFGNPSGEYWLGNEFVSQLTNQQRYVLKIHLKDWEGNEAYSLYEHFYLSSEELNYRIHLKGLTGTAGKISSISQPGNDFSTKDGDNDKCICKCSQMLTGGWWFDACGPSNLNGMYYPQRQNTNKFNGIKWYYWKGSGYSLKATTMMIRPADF

T3: Mouse/Human Ang-2 StuI chimeric molecule (mouse; human, UniProt O35608 19-496)
T3 construct: also called M/H Stul 310-496
T3 chain: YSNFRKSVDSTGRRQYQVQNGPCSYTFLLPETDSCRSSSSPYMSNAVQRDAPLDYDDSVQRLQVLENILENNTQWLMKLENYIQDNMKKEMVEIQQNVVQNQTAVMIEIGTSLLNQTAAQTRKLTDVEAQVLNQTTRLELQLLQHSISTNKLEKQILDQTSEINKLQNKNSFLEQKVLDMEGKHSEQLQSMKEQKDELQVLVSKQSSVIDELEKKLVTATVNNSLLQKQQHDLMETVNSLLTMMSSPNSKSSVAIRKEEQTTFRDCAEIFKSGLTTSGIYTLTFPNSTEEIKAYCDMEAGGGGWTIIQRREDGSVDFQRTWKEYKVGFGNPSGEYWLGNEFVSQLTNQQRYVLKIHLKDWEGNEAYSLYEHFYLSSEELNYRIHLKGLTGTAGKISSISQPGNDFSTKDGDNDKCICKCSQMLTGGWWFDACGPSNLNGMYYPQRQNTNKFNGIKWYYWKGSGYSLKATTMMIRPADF

T4: human Ang-2 V345M (human, UniProt O15123 19-496)
T4 sequence: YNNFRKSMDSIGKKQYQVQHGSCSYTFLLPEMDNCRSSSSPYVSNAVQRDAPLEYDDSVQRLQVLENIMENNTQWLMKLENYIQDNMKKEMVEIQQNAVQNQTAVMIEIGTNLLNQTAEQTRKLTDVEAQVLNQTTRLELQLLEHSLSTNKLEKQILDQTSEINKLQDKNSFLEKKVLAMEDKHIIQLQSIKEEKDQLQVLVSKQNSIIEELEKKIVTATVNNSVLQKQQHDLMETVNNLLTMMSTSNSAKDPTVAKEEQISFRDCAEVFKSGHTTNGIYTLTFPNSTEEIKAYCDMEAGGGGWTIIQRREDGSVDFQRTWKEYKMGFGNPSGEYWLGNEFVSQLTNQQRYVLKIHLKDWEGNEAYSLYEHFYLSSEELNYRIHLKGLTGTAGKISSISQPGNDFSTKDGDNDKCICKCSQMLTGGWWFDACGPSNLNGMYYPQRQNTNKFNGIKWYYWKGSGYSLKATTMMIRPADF

T5: mouse Angiopoietin-2 (mouse, UniProt O35608 19-496)
T5 construct: Used as conditioned medium of transfectants; also called mAng-2; mouse Ang-2
T5 sequence: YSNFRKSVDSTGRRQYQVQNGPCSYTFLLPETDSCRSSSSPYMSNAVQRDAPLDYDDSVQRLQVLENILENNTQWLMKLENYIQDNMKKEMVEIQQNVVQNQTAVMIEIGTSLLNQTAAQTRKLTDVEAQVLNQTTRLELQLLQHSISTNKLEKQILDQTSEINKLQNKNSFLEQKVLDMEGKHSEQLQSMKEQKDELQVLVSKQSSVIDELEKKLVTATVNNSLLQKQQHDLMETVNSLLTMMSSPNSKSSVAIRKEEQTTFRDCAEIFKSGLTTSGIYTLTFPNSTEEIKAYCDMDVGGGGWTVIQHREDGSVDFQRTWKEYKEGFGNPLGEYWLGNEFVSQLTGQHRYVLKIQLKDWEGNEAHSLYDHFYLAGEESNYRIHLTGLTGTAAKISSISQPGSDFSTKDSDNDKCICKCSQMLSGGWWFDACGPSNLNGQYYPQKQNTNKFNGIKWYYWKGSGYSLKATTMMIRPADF

B1: mAb 5.52.1 (antibody, V domains shown)
VH: QVQLVESGGGVVQPGRSLRLSCAASGFTFSSYGMHWVRQAPGKGLEWVAVRWYDESNKYYADSVKGRFTISRDNSKNTLYLQMNSLRAEDTAVYYCARDPFETGTTFDYWGQGTLVTVSS
VL: DIQMTQSPSSVSASVGDRVTITCRASQGISSWLAWYQQKPGKAPKLLIYAVSSLESGVPSRFSGSGSGTDFTLTISSLQPEDFATYYCQQALTFGGGTKVEIKR
notes: Human hybridoma IgG (XenoMouse); the line 5.52 has entries of its own (347, 349; light chain L2) that differ from the clone 5.52.1 (L5); also called x5.52
B2: mAb 3.19.3 (antibody, V domains shown)
VH: QVQLVESGGGVVQPGRSLRLSCAASGFTFTNYGMHWGRQAPGKGLEWVAVISHDGNNKYYVDSVKGRFTISRDNSKNTLYLQMNSLRAEDTAVYYCAREGIDFWSGLNWFDPWGQGTLVTVSS
VL: EIVLTQSPGTLSLSPGERATLSCRASQSITGSYLAWYQQKPGQAPRLLICGASSWATGIPDRFSGSGSGTDFTLTISRLEPEDFAVYYCQQYSSSPITFGQGTRLEIKR
notes: Human hybridoma IgG (XenoMouse); also called x3.19
B3: mAb 5.28.1 (antibody, V domains shown)
VH: EVQLVESGGIVVQPGGSLRLSCAASGFTFDDYTMHWVRQTPGKGLEWVSLISWDGGSTYYADSVKGRFTISRDNSKNSLYLQMNSLRTEDTALYYCAKDIDIAVAGTGFDHWGQGTLVTVSS
VL: EIVMTQSPATLSVSPGERATLSCRASQSVTSNLAWYQQKPGQAPRLLIYGALIRATGIPARFSGSGSGTEFTLTISSLQSEDFAVYYCQQYNNWPFTFGPGTKVDIKR
notes: Human hybridoma IgG (XenoMouse); also called x5.28
B4: mAb 5.83.1 (antibody, V domains shown)
VH: not shown
VL: EIVMTQSPATLSVSPGERATLSCRASQSLISNLAWYQQKPGQAPRLLIFGASTRATGIPARFSGSGSGTEFTLTISSLQSEDFAVYYCHQYNNWWTFGQGTKVEIKR
notes: Human hybridoma IgG (XenoMouse); also called x5.83
B5: mAb 5.13.1 (antibody, V domains shown)
VH: EVQLVESGGGLVQPGGSLRLSCAASGFTFSSYWMSWVRQAPGKGLEWVANIKQDGSEKYYVDSVKGRFTISRDNAKNSLYLQMNSLRAEDTAVYYCARDPGIAVAGPFDYWGQGTLVTVSS
VL: B4 VL with L29V, I30S, F49Y, H89Q, N93H
notes: Human hybridoma IgG (XenoMouse); also called x5.13
B6: mAb 3.31.2 (antibody, V domains shown)
VH: EVQLVESGGGLVQPGGSLRLSCAASGFTFSSYWMSWVRQAPGKGLEWVANIKQDGSDKYYVDSVKGRFTISRDNAKNSLYLRMNSLRAEDTAVFYCARDMGSGWFDYWGQGTLVTVSS
VL: B4 VL with I2V, L29V, I30G, F49Y, Y87C, H89Q, N93H
notes: Human hybridoma IgG (XenoMouse); also called x3.31
B7: mAb 5.88.3 (antibody, V domains shown)
VH: EVQMVESGGGLVQPGGSLRLSCAASGFTLRSYWMSWVRQAPGKGLEWVANIKEDGSEKYHVDSVKGRFTISRDNAENSLFLQMSSLRAEDTAVYYCARDMEASAGLFDYWGQGTLVTVSS
VL: B4 VL with T20I, L29I, I30S, F49Y, H89Q, N93Y
notes: Human hybridoma IgG (XenoMouse); also called x5.88
B8: mAb 3.3.2 (antibody, V domains shown)
VH: B5 VH with A24V, P100Q
VL: B4 VL with S28T, L29V, I30S, N32D, F49Y, T53I, Y87S, H89Q, N92Y
notes: Human hybridoma IgG (XenoMouse); also called 3.3.1; x3.3
B9: mAb 5.54.1 (antibody, V domains shown)
VH: not shown
VL: B4 VL with V85I
notes: Human hybridoma IgG (XenoMouse); also called x5.54
B10: mAb 5.101.1 (antibody, V domains shown)
VH: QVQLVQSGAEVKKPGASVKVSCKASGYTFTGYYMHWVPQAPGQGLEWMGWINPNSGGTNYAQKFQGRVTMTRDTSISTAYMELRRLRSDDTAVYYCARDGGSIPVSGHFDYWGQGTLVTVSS
VL: B4 VL
notes: Human hybridoma IgG (XenoMouse); also called x5.101
B11: mAb 5.62.1 (antibody, V domains shown)
VH: B5 VH
VL: B4 VL with L29V, I30S, F49Y, S52F, H89Q, N93H, E104G
notes: Human hybridoma IgG (XenoMouse); also called x5.62
B12: mAb 5.86.1 (antibody, V domains shown)
VH: QVQLVQSGAEVKKPGASVKVSCKASGYTFTGYHMYWVRQAPGQGLEWLGWINPNSGGTNYAQKFQGRVTMTRDTSISTAYMELSRLRSDDTAVYYCVRDQGIAAAGPFDYWCQGTLVTVSS
VL: DIRMTQSPSSLSASVGDRVTITCRASQRISTYLNWYQQKPGKAPKFLIYAASSLQSGVPSRFSGSGSGTDFTLTISSLQPEDFATYYCQQSYTTPFTFGPGTKVDIKR
notes: Human hybridoma IgG (XenoMouse); also called x5.86
B13: mAb 5.56.1 (antibody, V domains shown)
VH: QVQLVESGGGVVQPGRSLRLSCAASGFTFSSYGMHWVRQAPGKGLEWVAVIWYDGSNKYYADSVKGRFTISRDNSKNTLYLQMNSLRAEDTAVYYCAREDNWNFYFDYWGQGTLVTVSS
VL: DIQMTQSPSSLSASVGDRVTITCRASQGISYYLAWYQQKPGKVPKLLIYAASTLQSGVPSRFSGSGSGTDFTLTISSLQPEDVATYYCQKYNSAPFTFGPGTKVDIKR
notes: Human hybridoma IgG (XenoMouse); also called x5.56

target: T1, human Ang-2443; test: ELISA

% of binding to human Ang-2 | Binder
100% | B1
100% | B2
100% | B3
100% | B4
100% | B5
100% | B6
100% | B7
100% | B8
100% | B9
100% | B10
100% | B11
100% | B12
100% | B13

Target: T2, Human Ang-1/2 BsmI chimeric molecule
Test: ELISA

% of binding to human Ang-2 | Binder
100% | B1
100% | B2
100% | B3
100% | B4
100% | B5
100% | B6
100% | B7
100% | B8
100% | B9
100% | B10
100% | B11
100% | B12
100% | B13

Target: T3, Mouse/Human Ang-2 StuI chimeric molecule
Test: ELISA

% of binding to human Ang-2 | Binder
100% | B1
100% | B2
100% | B3
100% | B4
100% | B5
100% | B7
100% | B8
100% | B9
100% | B10
100% | B11
100% | B12
100% | B13

target: T4, human Ang-2 V345M; test: ELISA

% of binding to human Ang-2 | Binder
100% | B1
100% | B2
100% | B3
100% | B4
100% | B5
100% | B6
100% | B7
100% | B8
100% | B9
100% | B10
100% | B11
100% | B12
100% | B13

target: T5, mouse Angiopoietin-2; test: ELISA, recombinant mouse Ang-2

binding result | Binder
no binding | B4
no binding | B5
no binding | B7
no binding | B8
no binding | B9
no binding | B10
no binding | B11
no binding | B12
